Measured values: patent publication US6649168B2, “Pharmaceutical compositions comprising TGF-beta” (Novartis AG, priority 1999, dated 2003)

Columns and labels:
[1] = Fluorescence adsorption study (intrinsic tryptophan fluorescence) of binding to cuvette walls; assay type: physicochemical; details: solution of TGF-β (1 μg/ml) in water, 25° C.
Excerpt: We have also developed an analytical method suitable for determining suitable concentrations of TGF-β, especially TGF-β3. When adsorption of a fluorescent molecule (protein) occurs to the cuvette walls the concentration of the molecule in the solution decreases. This change in concentration is monitored by changes (reduction) in the fluorescence intensity. With optimized slits in the excitation and emission monochromators the excitation beam is focused in a small region in the middle of the cuvette and the emission is collected also preferentially from the same region. […] In these conditions the fluorescence intensity is proportional to the concentration of the molecules in the aqueous solution (monitored in the middle of the cuvette). If binding occurs a decrease in the fluorescence intensity is observed. For TGF-β the intrinsic tryptophan fluorescence is used in the adsorption studies. To characterize an adsorption process the percentage from the total TGF-β in the cuvette which bound to the walls in a given time interval, e.g. 25 minutes, is measured. Fluorescence measurements are performed with a Spex Fluorolog® or a Spex Fluoromax® spectrophotometers with a stirred attachment in the cell holder at 25° C. Tryptophan fluorescence is excited at 280 nm and emission monitored at 340 nm. […]

vascularization = test: Mouse subcutaneous model (induction of angiogenesis); assay type: in vivo
Excerpt: (§1) The in vivo performance of the pharmaceutical compositions of the present invention may be tested on horses (wound healing), pigs (oral mucositis inhibition), rabbits e.g. with the rabbit cranial defect model (induction of repairing of bone defects), and femal mice (induction of angiogenesis).

[2] = Aggregation by 90°-light scattering; assay type: physicochemical; details: 10 mM calcium chloride or 10 mM calcium phosphate, and 20% isopropanol or ethanol; increasing TGF-β3 concentration up to 60 μg/ml
Experimental: Aggregation of TGF-β3 in different aqueous conditions is studied using 90°-lightscattering. Using the same wavelength for excitation and emission, e.g. excitation and emission wavelength is 560 nm, a Spectrofluorimeter is used to detect aggregation events by measuring the 90°-light scatter. In this method a small aliquot of TGF-β3 stock solution is added in the fluorescence cuvette. If aggregation takes place an increase in the 90°-light scatter intensity is observed.
A composition comprising 10 mM calcium chloride or 10 mM calcium phosphate, and 20% isopropanol or ethanol is prepared.

cranial bone defect = test: Rabbit cranial defect model, bony filling by quantitative radiography; assay type: in vivo
Experimental: as §1
Bone disks removed for creation of the defect served as controls for the extent of bone regeneration. After an eight week healing period the bony filling of the defects was determined by quantitative radiography. The total defect area corresponded to 113320.2 pixels and was taken as 100% for further calculations. Accordingly, complete regeneration corresponded to a value of 11.3×10^4 pixels.

[3] = Chemical stability of lyophilized formulation, by-products by capillary zone electrophoresis; assay type: physicochemical; details: in the absence of CaCl2
Experimental: The chemical stability of lyophilized formulation in vials containing TGF-β3, 5.881 mg of CaCl2 and 25 mg of mannitol have been tested. The vials are solubilized to obtain TGF-β3 solutions of 0.1 mg/ml and 0.25 mg/ml. TGF-β3 by-products (related substances) are determined by capillary zone electrophoresis. […] There is no increase in the TGF-β3 by-products after 6 month incubation at 40° C. In comparison, in the absence of CaCl2 the chemical degradation is substantial.

## TGF-β
[1]
  binding to plastic, quartz and siliconised quartz cuvettes: bind strongly

## TGF-β3: 25 kD homodimeric, disulfide-linked protein composed of two 112 amino acid polypeptides
vascularization
  vascularization (in words): strong vascularization
[2]
  aggregation (90°-light scatter intensity): No aggregation
Cranial bone defect
  bone formation (in words): strong bone formation
[3]
  chemical degradation: substantial
